# Assay: GEN1046 in combination with docetaxel in metastatic NSCLC subjects, adverse effects
# Format: in vivo, human
# Procedure: Docetaxel was administered at a dose of 55 mg/m^2 or 75 mg/m^2 depending on the number of prior Dose Limiting Toxicities observed. The maximum tested dose of docetaxel was be 75 mg/m^2.
# Subjects with a histological or cytological diagnosis of non-squamous NSCLC must not have an EGFR-sensitizing mutation and/or ALK translocation/ROS1 rearrangement. EGFR sensitizing mutations are those mutations that are amenable to treatment with an approved TKI. Documentation of EGFR and ALK status should be available per local assessment.
# [1] = GEN1046 in combination with Docetaxel
substance,measurement,setting,value
"GEN1046: PD-L1×4-1BB bispecific antibody: PD-L1-547-FEAL combined with CD137-009-HC7LC2-FEAR (SEQ ID NOs: 1, 5, 21, 19; 8, 12, 22, 20)","Anemia Grade 5, GEN1046-related",GEN1046 + 75 mg/m^2 Docetaxel,0
same,"Blood thyroid stimulating hormone abnormal Grade 1, GEN1046-related",GEN1046 + 75 mg/m^2 Docetaxel,1
same,"Blood thyroid stimulating hormone abnormal Grade 2, GEN1046-related",GEN1046 + 75 mg/m^2 Docetaxel,0
same,"Blood thyroid stimulating hormone abnormal Grade 3, GEN1046-related",GEN1046 + 75 mg/m^2 Docetaxel,0
same,"Blood thyroid stimulating hormone abnormal Grade 4, GEN1046-related",GEN1046 + 75 mg/m^2 Docetaxel,0
same,"Blood thyroid stimulating hormone abnormal Grade 5, GEN1046-related",GEN1046 + 75 mg/m^2 Docetaxel,0
same,"Cough Grade 1, GEN1046-related",GEN1046 + 75 mg/m^2 Docetaxel,1
same,"Cough Grade 2, GEN1046-related",GEN1046 + 75 mg/m^2 Docetaxel,0
same,"Cough Grade 3, GEN1046-related",GEN1046 + 75 mg/m^2 Docetaxel,0
same,"Cough Grade 4, GEN1046-related",GEN1046 + 75 mg/m^2 Docetaxel,0
same,"Cough Grade 5, GEN1046-related",GEN1046 + 75 mg/m^2 Docetaxel,0
same,"Dry mouth Grade 1, GEN1046-related",GEN1046 + 75 mg/m^2 Docetaxel,1
same,"Dry mouth Grade 2, GEN1046-related",GEN1046 + 75 mg/m^2 Docetaxel,0
same,"Dry mouth Grade 3, GEN1046-related",GEN1046 + 75 mg/m^2 Docetaxel,0
same,"Dry mouth Grade 4, GEN1046-related",GEN1046 + 75 mg/m^2 Docetaxel,0
same,"Dry mouth Grade 5, GEN1046-related",GEN1046 + 75 mg/m^2 Docetaxel,0
same,"Dyspnea Grade 1, GEN1046-related",GEN1046 + 75 mg/m^2 Docetaxel,1
same,"Dyspnea Grade 2, GEN1046-related",GEN1046 + 75 mg/m^2 Docetaxel,2
same,"Dyspnea Grade 3, GEN1046-related",GEN1046 + 75 mg/m^2 Docetaxel,0
same,"Dyspnea Grade 4, GEN1046-related",GEN1046 + 75 mg/m^2 Docetaxel,0
same,"Dyspnea Grade 5, GEN1046-related",GEN1046 + 75 mg/m^2 Docetaxel,0
same,"Fatigue Grade 1, GEN1046-related",GEN1046 + 75 mg/m^2 Docetaxel,1
same,"Fatigue Grade 2, GEN1046-related",GEN1046 + 75 mg/m^2 Docetaxel,2
same,"Fatigue Grade 3, GEN1046-related",GEN1046 + 75 mg/m^2 Docetaxel,0
same,"Fatigue Grade 4, GEN1046-related",GEN1046 + 75 mg/m^2 Docetaxel,0
same,"Fatigue Grade 5, GEN1046-related",GEN1046 + 75 mg/m^2 Docetaxel,0
same,"Gastroesophageal reflux disease Grade 1, GEN1046-related",GEN1046 + 75 mg/m^2 Docetaxel,1
same,"Gastroesophageal reflux disease Grade 2, GEN1046-related",GEN1046 + 75 mg/m^2 Docetaxel,0
same,"Gastroesophageal reflux disease Grade 3, GEN1046-related",GEN1046 + 75 mg/m^2 Docetaxel,0
same,"Gastroesophageal reflux disease Grade 4, GEN1046-related",GEN1046 + 75 mg/m^2 Docetaxel,0
same,"Gastroesophageal reflux disease Grade 5, GEN1046-related",GEN1046 + 75 mg/m^2 Docetaxel,0
same,"Hiccups Grade 1, GEN1046-related",GEN1046 + 75 mg/m^2 Docetaxel,0
same,"Hiccups Grade 2, GEN1046-related",GEN1046 + 75 mg/m^2 Docetaxel,1
same,"Hiccups Grade 3, GEN1046-related",GEN1046 + 75 mg/m^2 Docetaxel,0
same,"Hiccups Grade 4, GEN1046-related",GEN1046 + 75 mg/m^2 Docetaxel,0
same,"Hiccups Grade 5, GEN1046-related",GEN1046 + 75 mg/m^2 Docetaxel,0
same,"Hyperglycemia Grade 1, GEN1046-related",GEN1046 + 75 mg/m^2 Docetaxel,1
same,"Hyperglycemia Grade 2, GEN1046-related",GEN1046 + 75 mg/m^2 Docetaxel,0
same,"Hyperglycemia Grade 3, GEN1046-related",GEN1046 + 75 mg/m^2 Docetaxel,1
same,"Hyperglycemia Grade 4, GEN1046-related",GEN1046 + 75 mg/m^2 Docetaxel,0
same,"Hyperglycemia Grade 5, GEN1046-related",GEN1046 + 75 mg/m^2 Docetaxel,0
same,"Lipase increased Grade 1, GEN1046-related",GEN1046 + 75 mg/m^2 Docetaxel,0
same,"Lipase increased Grade 2, GEN1046-related",GEN1046 + 75 mg/m^2 Docetaxel,1
same,"Lipase increased Grade 3, GEN1046-related",GEN1046 + 75 mg/m^2 Docetaxel,0
same,"Lipase increased Grade 4, GEN1046-related",GEN1046 + 75 mg/m^2 Docetaxel,0
same,"Lipase increased Grade 5, GEN1046-related",GEN1046 + 75 mg/m^2 Docetaxel,0
same,"Musculoskeletal chest pain Grade 1, GEN1046-related",GEN1046 + 75 mg/m^2 Docetaxel,0
same,"Musculoskeletal chest pain Grade 2, GEN1046-related",GEN1046 + 75 mg/m^2 Docetaxel,1
same,"Musculoskeletal chest pain Grade 3, GEN1046-related",GEN1046 + 75 mg/m^2 Docetaxel,0
same,"Musculoskeletal chest pain Grade 4, GEN1046-related",GEN1046 + 75 mg/m^2 Docetaxel,0
same,"Musculoskeletal chest pain Grade 5, GEN1046-related",GEN1046 + 75 mg/m^2 Docetaxel,0
same,"Nausea Grade 1, GEN1046-related",GEN1046 + 75 mg/m^2 Docetaxel,0
same,"Nausea Grade 2, GEN1046-related",GEN1046 + 75 mg/m^2 Docetaxel,1
same,"Nausea Grade 3, GEN1046-related",GEN1046 + 75 mg/m^2 Docetaxel,0
same,"Nausea Grade 4, GEN1046-related",GEN1046 + 75 mg/m^2 Docetaxel,0
same,"Nausea Grade 5, GEN1046-related",GEN1046 + 75 mg/m^2 Docetaxel,0
same,"Neutrophil count decreased Grade 1, GEN1046-related",GEN1046 + 75 mg/m^2 Docetaxel,0
same,"Neutrophil count decreased Grade 2, GEN1046-related",GEN1046 + 75 mg/m^2 Docetaxel,0
same,"Neutrophil count decreased Grade 3, GEN1046-related",GEN1046 + 75 mg/m^2 Docetaxel,0
same,"Neutrophil count decreased Grade 4, GEN1046-related",GEN1046 + 75 mg/m^2 Docetaxel,1
same,"Neutrophil count decreased Grade 5, GEN1046-related",GEN1046 + 75 mg/m^2 Docetaxel,0
same,"Palmar plantar erythrodysesthesia Syndrome (PPE) Grade 1, GEN1046-related",GEN1046 + 75 mg/m^2 Docetaxel,1
same,"Palmar plantar erythrodysesthesia Syndrome (PPE) Grade 2, GEN1046-related",GEN1046 + 75 mg/m^2 Docetaxel,0
same,"Palmar plantar erythrodysesthesia Syndrome (PPE) Grade 3, GEN1046-related",GEN1046 + 75 mg/m^2 Docetaxel,0
same,"Palmar plantar erythrodysesthesia Syndrome (PPE) Grade 4, GEN1046-related",GEN1046 + 75 mg/m^2 Docetaxel,0
same,"Palmar plantar erythrodysesthesia Syndrome (PPE) Grade 5, GEN1046-related",GEN1046 + 75 mg/m^2 Docetaxel,0
same,"Pruritus Grade 1, GEN1046-related",GEN1046 + 75 mg/m^2 Docetaxel,1
same,"Pruritus Grade 2, GEN1046-related",GEN1046 + 75 mg/m^2 Docetaxel,0
same,"Pruritus Grade 3, GEN1046-related",GEN1046 + 75 mg/m^2 Docetaxel,0
same,"Pruritus Grade 4, GEN1046-related",GEN1046 + 75 mg/m^2 Docetaxel,0
same,"Pruritus Grade 5, GEN1046-related",GEN1046 + 75 mg/m^2 Docetaxel,0
same,"Total treated subjects with related TEAEs Grade 1, GEN1046-related",GEN1046 + 75 mg/m^2 Docetaxel,4
same,"Total treated subjects with related TEAEs Grade 2, GEN1046-related",GEN1046 + 75 mg/m^2 Docetaxel,4
same,"Total treated subjects with related TEAEs Grade 3, GEN1046-related",GEN1046 + 75 mg/m^2 Docetaxel,2
same,"Total treated subjects with related TEAEs Grade 4, GEN1046-related",GEN1046 + 75 mg/m^2 Docetaxel,1
same,"Total treated subjects with related TEAEs Grade 5, GEN1046-related",GEN1046 + 75 mg/m^2 Docetaxel,0
same,"Vomiting Grade 1, GEN1046-related",GEN1046 + 75 mg/m^2 Docetaxel,1
same,"Vomiting Grade 2, GEN1046-related",GEN1046 + 75 mg/m^2 Docetaxel,0
same,"Vomiting Grade 3, GEN1046-related",GEN1046 + 75 mg/m^2 Docetaxel,0
same,"Vomiting Grade 4, GEN1046-related",GEN1046 + 75 mg/m^2 Docetaxel,0
same,"Vomiting Grade 5, GEN1046-related",GEN1046 + 75 mg/m^2 Docetaxel,0
same,Hepatotoxicity,[1],No reported drug-related hepatoxicities
same,Immune-related toxicities,[1],None reported
same,Serious adverse events related to GEN1046,"dose limiting toxicity period, in combination with Docetaxel",No serious adverse events
same,Dose Limiting Toxicity,with Docetaxel 55 mg/m^2 or 75 mg/m^2,No Dose Limiting Toxicity reported

# Reference: US20240109972A1, “ANTIBODY AND TAXANE COMBINATION THERAPY” (Genmab A/S, priority 2020, published 2024)
